Measured values from patent publication US11672846B2, “Soluble bacterial and fungal proteins and methods and uses thereof in inhibiting and dispersing biofilm” (priority 2014, dated 2023).
Entries after “also recorded” stand apart in the source; their conditions may differ. Like-named read-outs stand apart in the source and are kept apart here.

What was measured:
[1] = tested on: P. aeruginosa PAO1 ΔwspFΔpslpBADpel; experiment: Inhibition of Pel biofilm formation in static culture (crystal violet)
[2] = tested on: Pel biofilms of P. aeruginosa PAO1 ΔwspFΔpslpBADpel; experiment: Dispersal of pre-formed Pel biofilms (crystal violet)
Description: The methodology to generate pre-formed Pel biofilms is identical to that of Psl biofilms, described in Example 4 with the exception that the strain used is P. aeruginosa PAO1 ΔwspFΔpslpBADpel.

[3] = tested on: pre-formed A. fumigatus GAG biofilms; assay type: cell-based; details: crystal violet
[4] = tested on: A. fumigatus GAG biofilm; experiment: Inhibition of GAG-dependent A. fumigatus biofilm formation (crystal violet); assay type: cell-based; details: 20 h in Brian media, crystal violet; listed as P. protogens PelA35-291
[5] = tested on: P. aeruginosa PAO1 pBADpsl; experiment: Inhibition of Psl biofilm formation in static culture (crystal violet); assay type: cell-based, Pseudomonas aeruginosa
[6] = tested on: Psl biofilms of P. aeruginosa PAO1 pBADpsl; experiment: Dispersal of pre-formed Psl biofilms (crystal violet); assay type: cell-based, Pseudomonas aeruginosa
[7] = tested on: PNAG-overproducing E. coli biofilms; experiment: Dispersal of pre-formed PNAG-dependent E. coli biofilms
[8] = purified protein

Molecule	EC50 ([1]; read-out: EC50 of Pel biofilm inhibition, static PAO1ΔwspFΔpslPBADpel culture)	time to disperse pre-formed Pel biofilm ([2]; 1 μM enzyme)	dispersal of pre-formed Pel biofilm (in words) ([2]; 10-fold dilution of 1 μM, 1 h)	dispersal of pre-formed GAG biofilm (in words) [3]	dispersal of pre-formed GAG biofilm (in words) ([3]; listed as P. protogens PelA35-291)	prevention of GAG biofilm formation (in words) [4]	inhibition of Pel biofilm formation (in words) ([1]; specificity control)	effect on PAO1 growth ([5]; 10 μM enzyme)	EC50 ([5]; PAO1 pBADpsl, static 24 h at 26° C., crystal violet)	time to disperse pre-formed Psl biofilm ([6]; 58 nM enzyme)	time to disperse / completely abolish pre-formed Psl biofilm ([6]; 86 nM enzyme)	effect on pre-formed Psl biofilm ([6]; 86 nM enzyme, after 20 min)	dispersal of PNAG-dependent biofilms (in words) [7]	concentration to which the protein could be concentrated [8]
PelA35-291: PelA residues 35-291 from P. protogens Pf-5, SEQ ID NO: 13 (protein, listed as Pseudomonas protogens) AAPASVGFWYAEQPPLQELAQFEWAVVEPGHMASADVATLRKLGSQPFAYLSVGEFDGNRAALAKQALAQGASPVRNKAWDSQVMDIATPAWREHLFKRAKALQDQGYAGLFLDTLDSFQLLPEADREPQRKALASFLRELHSRLPNLKLFFNRGFEVLGELDGVASAVAVESIHAGWDASAKRYRPVSEADRTWLEGELKPLRARNIPLVAIDYLPANRREEARKLVRQLSQEGFIPVVTTPDLNALSMSTVEVQP	69.3 ± 1.2 nM	30 min	disperse nearly all the biofilm	elimination of the GAG biofilm	elimination of the GAG biofilms	shown to prevent GAG-dependent biofilm formation	–	–	–	–	–	–	–	–
PslG31-442: soluble PslG glycosyl hydrolase construct, residues 31-442, P. aeruginosa PAO1, SEQ ID NO: 11 (protein, listed as Pseudomonas aeruginosa) EIQVLKAPRAVVWKDFLGVNAQFLWFSPERYNKQIDRLQDLGLEWVRLDLHWDRLETAEDQYQLASLDQLVKDLEARQLKSVFYLVGSARFITTAPFYSPFQDQYPPRDPEVFARRMAMLSQRYPSVAAWQVWNEPNLIGFWRPKADPEGYAKLLQASTIALRMVDPEKPVVSAGMAFFSEMPDGRTMFDALGHLGVESLGTIATYHPYTQLPEGNYPWNLDFVSHANQINRALRNAGVPAIWSTEWGWSAYKGPKELQDIIGVEGQADYVLRRLALMSALDYDRIFLFTLSDLDQRASVRDRDYGLLDLDANPKPVYLALQRFLKVTGPKLRPADPPVTEDLPDGSFSIGWTREDGRNVWLFWSARGGNVRLPKLKEATLHDPLSGKVTPLSGSDGLEVPVKSSLQMLVWE	–	–	–	–	–	–	did not inhibit Pel biofilm formation; also recorded: unable at preventing biofilm formation	did not prevent PAO1 growth	4.1 ± 1.1 nM	30 min	35 min	significant reduction of the biofilm	had no affect	8000 to 10000 µg/mL
